Laboratory results published in US7294472B2, “Method for identifying modulators of G protein coupled receptor signaling” (Caden Biosciences, priority 2001, dated 2007).
Where no end group is shown, it is not given here.

How the values were obtained:
[1] = target: T1, rhodopsin (Bos taurus, UniProt P02699); test: "extra MII" assay: stabilization of metarhodopsin II; format: biochemical, bovine; conditions: for EC50: MBP-high affinity peptide fusion proteins
T1 construct: Bovine rod outer segments (rhodopsin-containing membranes) were prepared from fresh retinas; from tissue; host or cells: bovine retina, rod outer segment membranes (EDTA- and urea-washed)
Description: Rhodopsin can be measured spectrophotometrically in many of its conformational states. The high affinity, biologically active rhodopsin state can be easily differentiated from its precursor, MI, by the “extra” MII assay. See Example 35. This assay relies on the observation that under conditions of high pH and low temperature, MII is stabilized in the presence of Gt and can be spectrophotometrically measured. The ability of the C-terminal peptide to stabilize Meta II in the same manner as the heterotrimeric Gt, provides the tools to investigate the structural basis of the interaction of G proteins with the agonist binding sites of activated receptors.
For the “extra MII” assay, EDTA-washed rhodopsin (Example 5; 5 μM) is incubated in a 50 mM HEPES buffer, pH 8.2, with 100 mM NaCl, 1 mM MgCl2, and 1 mM DTT at 5.3° C., in the absence or presence of varying concentrations of Gt340-350 analogs or Gt. The sample is maintained at 5.4° C. using a water-jacketed and thermostated circulator cuvette holder in an SLM Aminco DW2000 spectrophotometer at 390 and 440 nm. A flash of light bleaching 10% of the rhodopsin is presented and after a 1 min incubation, a second spectrum is measured and the difference in spectrum calculated. “Extra” MII is calculated as the difference between the absorbance at 390 and 440. Dose response curves of MII stabilization by αt340350 (λ), mutant α340-350K341L(ν), and heterotrimeric Gt (v) were analyzed by non-linear regression using the program GraphPad PRISM and are shown in FIG. 23.
EDTA-washed rhodopsin (5 μM) was incubated in a 50 mM HEPES buffer, pH 8.2, with 100 mM NaCl, 1 mM MgCl2, and 1 mM DTT at 5.3° C., and “extra” MII was measured. For compounds that enhanced MBP-8 binding over 25% using the color coded readout, dose studies were performed to generate EC50 curves. Table XXII below provides the calculated EC50 for metarhodopsin II stabilization of each compound.

[2] = target: T2, light-activated rhodopsin (Bos taurus, UniProt P02699); test: ELISA binding of MBP-peptide fusion proteins to light-activated rhodopsin; design: species or system bovine; conditions: for EC50 / ELISA OD450: MBP-high affinity peptide fusion proteins; for EC50: read-out: MII binding EC50; for ELISA OD450: absorbance at OD450 in a panning ELISA
T2 construct: Bovine rod outer segments (rhodopsin-containing membranes) were prepared from fresh retinas; from tissue; host or cells: bovine retina, rod outer segment membranes (EDTA- and urea-washed)
Description: The entire population of peptide-coding sequences identified in round 4 of panning (see Example 7) was transferred from pJS142 to pELM3 (New England Biolabs). This plasmid is a pMal-c2 derivative with a modified polylinker, inducible by isopropyl β-thiogalacto-pyranoside and containing the E. coli malE gene with a deleted leader sequence and leads to cytoplasmic expression of MBP fusion proteins. The MBP-carboxyl terminal peptide analog fusion proteins were expressed in E. coli.
For the assay, in the dark, 1 μg/well of ROS membranes (rhodopsin) as described in Example 5 was directly immobilized on microtiter wells in cold HEK/DTT for one hour at 4° C. The wells were rinsed, blocked with 1% BSA in HEK/DTT for one hour at 4° C. and rinsed again. Bound rhodopsin was activated by exposure to light for 5 minutes on ice before addition of the MBP fusion proteins (crude bacterial lysates were diluted 1:50 in HEK with 1 μM dithiothreitol; purified proteins were used at 0.2-120 nM). The MBP-Gαt340-350K341R (pELM17) fusion protein and MBP with linker sequence only (pELM6) were present in control wells at 50 nM final concentration. After 30 minutes, wells were washed and rabbit anti-MBP antibody (New England Biolabs) was added. The anti-MBP antibody was used at a 1:1000 dilution for crude lysates and a 1:3000 dilution for purified proteins. After 30 minutes, wells were rewashed and goat anti-rabbit antibody conjugated to horseradish peroxidase (1:7500 dilution for crude lysates; 1:10,000 dilution for purified proteins; Kierkagaard & Perry Laboratories) was added. After 30 minutes, the plate was washed four times with PBS containing 0.05% Tween™20. Horseradish peroxidase substrate (100 μl) was added and color was allowed to develop for about 20 minutes. The reaction was stopped by addition of 100 μl 2N sulfuric acid. Values indicate absorbance at OD450. The positive control for the assay was pELM 17, which encodes the MBP fusion protein Gαt340-350K341R. pELM6, which expresses MBP protein fused to a linker sequence only, served as the negative control. “No lysate” control wells were included to reflect any intrinsic, non-specific binding within the assay. […]

[3] = target: T1, rhodopsin; test: ELISA binding of lysates of peptides panned from the Gt library to rhodopsin; design: species or system bovine; conditions: OD450 for wells with receptor minus OD450 for wells with no receptor
Method: The panning process is illustrated in FIG. 1. For screening of the library by “panning,” rhodopsin receptors prepared according to Example 5 were immobilized directly on Immulon 4 (Dynatech) microtiter wells (0.1-1 μg of protein per well) in cold 35 mM HEPES, pH 7.5, containing 0.1 mM EDTA, 50 mM KCl and 1 mM dithiothreitol (HEK/DTT). After shaking for one hour at 4° C., unbound membrane fragments were washed away with HEK/DTT. The wells were blocked with 100 μl 2% BSA in HEKL (35 mM HEPES; 0.1 mM EDTA; 50 mM KCl; 0.2 M α-lactose; pH 7.5, with 1 mM DTT). For rounds 1 and 2, BSA was used for blocking; in later rounds 1% nonfat dry milk was used. For the first round of panning, about 24 wells of a 96-well plate were used. In subsequent rounds, 8 wells with receptor and 8 wells without receptor were prepared.
The Gt library was thawed (2 mL aliquot) and mixed with 6 mL lysis buffer on ice. Lysis buffer contains 4.25 mL HE (25 mM HEPES: 0.1 mM EDTA; pH 7.5); 1 mL 50% glycerol; 750 μL 10 mg/mL protease-free BSA in HE; 10 μL 0.5 M DTT; and 6.25 μL 0.2 M PMSF. Freshly prepared lysozyme solution (150 μL 10 mg/mL lysozyme in cold HE) was added and the tube was gently inverted several times and incubated on ice for no more than two minutes. The extent of lysis is evidenced by an increase in viscosity that can be observed by noting the slow migration of bubbles to the top of the tube after mixing. Lysis was terminated by mixing in 2 mL 20% lactose and 250 μL 2M KCl. The tube was centrifuged immediately at 13,000×g for 15 minutes at 4° C. and the supernatant transferred to a new tube. A small aliquot of 0.1% (the PRE sample) was saved in a separate, labeled tube. […] Immediately thereafter, the crude bacterial lysate from the peptide library (200 μL) was added to each well and allowed to shake gently for one hour at 4° C. For round 2, this same procedure was followed. In round 3, the amount of lysate used was reduced to 100 μL. In subsequent rounds, the lysate was diluted 1:10 in HEKL/BSA. In all rounds, 5-10 μL 200 μM native peptide was added to the wells to chase off peptides that were bound with lower affinity.
The methods of Example 7 repeated using rhodopsin screening with a Gt library. To identify the rank order of binding, the lysates were analyzed using ELISA methods in which the secondary antibody was conjugated to HRP. Following addition of the substrate, the microplate was read using a spectrophotometer. The binding is the OD450 for wells with receptor—OD450 for wells in which no receptor (control wells with empty lipid vesicles).

[4] = target: β2 adrenergic receptor (Homo sapiens, UniProt P07550); test: ELISA binding of peptides panned from the Gs library to β2 adrenergic receptor; conditions: recombinant reconstituted β2 adrenergic receptor; peptides selected from Gs library
Description: The methods of Example 7 were repeated using recombinant reconstituted β2 adrenergic receptor panned with the Gs Library.

[5] = target: T3, PAR1 (Homo sapiens, UniProt P25116); test: ELISA binding of purified MBP clones to SF9 membranes expressing PAR1 or muscarinic M1 receptor; design: expressed in transfected cells; host or cells: membranes of Sf9 insect cells infected with ThR/pBluebac recombinant virus; conditions: for specificity (in words): PAR1 versus Gq-coupled muscarinic M1 receptor; for binding affinity for PAR1 (in words): purified MBP clones, SF9 membranes
T3 sequence (P25116 22-425): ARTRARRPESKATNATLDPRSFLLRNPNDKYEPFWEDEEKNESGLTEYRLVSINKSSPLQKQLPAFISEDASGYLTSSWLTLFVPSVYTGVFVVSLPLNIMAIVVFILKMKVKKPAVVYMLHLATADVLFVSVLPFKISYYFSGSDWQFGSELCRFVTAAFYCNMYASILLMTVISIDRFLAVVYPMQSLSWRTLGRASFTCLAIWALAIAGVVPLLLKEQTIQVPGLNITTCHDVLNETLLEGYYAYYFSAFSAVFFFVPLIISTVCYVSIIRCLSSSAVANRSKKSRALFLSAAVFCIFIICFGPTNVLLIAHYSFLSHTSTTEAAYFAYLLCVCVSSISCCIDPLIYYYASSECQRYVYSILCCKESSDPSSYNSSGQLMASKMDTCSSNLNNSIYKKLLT
Method: To identify high affinity peptides that bind PAR1, membranes prepared from mammalian cells (Chinese hamster ovary) overexpressing PAR1 were panned with the G11 peptide library. ELISA binding affinity results of selected clones are shown in FIG. 9 for their binding to membranes prepared from SF9 cells expressing either PAR1 or the Gq-coupled muscarinic M1 receptor. To quantitate the binding, purified MBP clones were analyzed using ELISA methods in which the secondary antibody was conjugated to HRP. The binding for the control MBP-Gq fusion protein is shown. The data are the average of two separate experiments done in duplicate.

T2 sequence (P02699 whole entry, the tested form may be a part): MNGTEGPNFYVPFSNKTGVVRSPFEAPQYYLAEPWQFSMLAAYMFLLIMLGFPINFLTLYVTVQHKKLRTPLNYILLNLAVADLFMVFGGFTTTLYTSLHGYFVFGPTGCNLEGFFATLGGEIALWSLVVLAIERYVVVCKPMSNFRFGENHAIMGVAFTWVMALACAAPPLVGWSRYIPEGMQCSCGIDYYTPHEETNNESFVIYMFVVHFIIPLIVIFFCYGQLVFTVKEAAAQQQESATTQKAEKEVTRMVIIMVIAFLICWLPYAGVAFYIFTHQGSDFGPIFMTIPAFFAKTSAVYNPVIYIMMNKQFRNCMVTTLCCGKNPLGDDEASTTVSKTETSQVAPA
T1 sequence (P02699 whole entry, the tested form may be a part): as above

IKENLKDCGLF [Gt, reference compound]
EC50 [1]: > 100000 nM | EC50 [2]: 6000 nM | ELISA OD450 [2]: .01

LRENLKDCGLL [Clone L14]
ELISA [3]: .833

LQQVLKDCGLL [MBP-9]
EC50 [1]: 1050 nM | EC50 [2]: 10 nM | ELISA OD450 [2]: .35

QRMPLRQYELL [AG9]
ELISA [4]: .190

ERLHRRLFQLH [BAR8]
ELISA [4]: .047

RWLHWQYRGRG [AG20]
ELISA [4]: .431

ICENLKDCGLF [Clone L6]
ELISA [3]: .342

IRGSLKDCGLF [Clone L20]
ELISA [3]: .423

ILESLNECGLF [Clone L34]
ELISA [3]: .603

LLENLRDCGMF [Peptide 8]
EC50 [1]: 940 nM | EC50 [2]: 7.8 nM | ELISA OD450 [2]: .54

LHLNLKEYNLV (also: fused to MBP) [PAR-33, MBP clone, linker LSTN]
specificity (in words) [5]: low specificity | binding affinity for PAR1 (in words) [5]: low affinity

VRDILKDCGLF [Clone L15]
ELISA [3]: .621

HRRHIGEFALL [BAR11]
ELISA [4]: .048

QRIHRRPFKFF [BAR1]
ELISA [4]: .218

MLDNLKACGLF [Clone L4]
ELISA [3]: .908

QWMDLRQHELL [BAR3]
ELISA [4]: .185

DRMHLWRFGLL [AG11]
ELISA [4]: .192

PCIQLGQYESF [BAR40]
ELISA [4]: .028

QGEHLRQLQLQ [AG2]
ELISA [4]: .330

MLDNLKDCGLF [Clone L7]
ELISA [3]: .525

LLDILKDCGLF [Clone L38]
ELISA [3]: .823

QRMPLRLFEFL [AG3]
ELISA [4]: .217

ISKNLRDCGLL [Clone L13]
ELISA [3]: .187

LQLNRNEYYLV (also: fused to MBP) [PAR-13, MBP clone, linker VRPS]
binding affinity for PAR1 (in words) [5]: high affinity binding

MLENLKDCGLF [MBP-18]
EC50 [1]: 1240 nM | binding affinity to light-activated rhodopsin (in words) [2]: even higher binding affinities than did MBP-8 | EC50 [2]: 3.8 nM | ELISA OD450 [2]: .58

LLENLRDCGMI [MBP-8]
stabilization of MII (in words) [1]: stabilized MII | binding affinity to light-activated rhodopsin (in words) [2]: high affinity

NCMKFRSCGLF [BAR20]
ELISA [4]: .079

QRVHLRQDELL [BAR2]
ELISA [4]: .197

VLEDLKSCGLF [MBP-23]
EC50 [1]: 3500 nM | EC50 [2]: 20 nM | ELISA OD450 [2]: .66

QRLRLGPDELF [AG4]
ELISA [4]: .291

IVKNLEDCGLF [Clone L8]
ELISA [3]: .257

ICENLKDCGLF [MBP-10]
EC50 [1]: 5400 nM | EC50 [2]: 42 nM | ELISA OD450 [2]: .36

PRPRLLRFKIP [AG19]
ELISA [4]: .361

QRMNLGPCGLL [AG18]
ELISA [4]: .155

ILQNLKDCGLF [Clone L17]
ELISA [3]: .600

QRLRLRKYRLF [BAR31]
ELISA [4]: .026

LQQKLKEYSLV (also: fused to MBP) [PAR-23, MBP clone, linker LSRS]
specificity (in words) [5]: low specificity | binding affinity for PAR1 (in words) [5]: low affinity

MLKNLKDCGMF [MBP-24]
EC50 [1]: 490 nM | binding affinity to light-activated rhodopsin (in words) [2]: even higher binding affinities than did MBP-8 | EC50 [2]: 6.6 nM | ELISA OD450 [2]: .61

QRLHLRGYEFL [AG13]
ELISA [4]: .054

ILENLKDCGLF [Clone L3]
ELISA [3]: .839

QGMQLRRFKLR [AG1]
ELISA [4]: .435

QRLNVGEYNLV (also: fused to MBP) [PAR-34, MBP clone, linker LPQM]
binding affinity for PAR1 (in words) [5]: high affinity binding
